Among the data in the supplement of paper PMC10126150 are switch fluorescence ratio values, retold here.

± gives the standard deviation of the averaged measurements.

This data set has as its system ATP. Nature of the data set: switch fluorescence ratio, 500 uM ATP over buffer (Cy3 cluster intensity, sum of 5 cycles each) (fold (ratio)); higher = stronger signal-on switching upon ATP binding; sequences stand for … in TCGTCGGCAGCGTCAGATGTGTATAAGAGACAGTTTTTTTTTTTTTTTTTTTTTTTTT…TC. The note with it: aptamer strand: ATP DNA aptamer (quencher-CACCTGGGGGAGTATTGCGGAGGAAGG + anchor), 100 nM annealed; ATP concentration: 500 uM. In outline:
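Imaging in selection buffer was followed by imaging after 15 min with 500 uM ATP at 22 °C, for Cy3-labelled switching-strand clusters annealed to 100 nM quencher-labelled ATP aptamer on a modified Illumina MiSeq flow-cell. Five of these buffer/ATP cycles ran, separated by NaOH stripping and re-annealing. The fluorescence ratio per cluster is summed target-cycle over summed buffer-cycle Cy3 intensity, averaged per switch-domain sequence; clusters outside 100-1000 RFU were removed.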
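Note: ATP exposure 15 min at 22 °C before imaging.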

AAAAAAACCT: the switch fluorescence ratio turned out to be 1.28 ± 0.39. For the sequence AAAAAAAGAT, the switch fluorescence ratio was 1.01 ± 0.039. In the case of AAAAAAGAAA it was 0.982 ± 0.015; in that of AAAAAAGACG, 1.05 ± 0.017.

Take AAAAAATTGC: the switch fluorescence ratio was determined as 1.04 ± 0.058. For the sequence AAAAAATTTT, the switch fluorescence ratio was 1.01 ± 0.023. Take AAAAACATAG: the switch fluorescence ratio came to 1.03 ± 0.017. For the sequence AAAAACGGGG, the switch fluorescence ratio stood at 1.009 ± 0.0075.

Turning to AAAAACGTAT, the switch fluorescence ratio was determined as 1.03 ± 0.04. In the case of AAAAACTAAT it was 0.992 ± 0.088; in that of AAAAAGCTGG, 1.03 ± 0.038; in that of AAAAAGGATA, 0.9884 ± 0.0013. In the case of AAAAAGTGCC, the switch fluorescence ratio turned out to be 1.07 ± 0.11. As to AAAAAGTTTG, the switch fluorescence ratio is 1 ± 0.04.

For AAAAATAGTT, the switch fluorescence ratio was found to be 1.03 ± 0.07. For the sequence AAAAATCGAA, the switch fluorescence ratio was found to be 1.02 ± 0.05. In the case of AAAAATGACG it was 0.991 ± 0.028; in that of AAAAATGGAG, 0.958 ± 0.017; in that of AAAAATTTGG, 1 ± 0.06. AAAACACGCT: the switch fluorescence ratio came to 1.18 ± 0.2. For AAAACAGTT, the switch fluorescence ratio amounted to 1.05 ± 0.02. Regarding AAAACCAGGG, the switch fluorescence ratio was determined as 1.08 ± 0.033. With AAAACCAGTA, the switch fluorescence ratio is 1.01 ± 0.075. In the case of AAAACCTCAC it was 1.56 ± 0.13; in that of AAAACGACAG, 1.04 ± 0.013; in that of AAAACTTAGA, 0.956 ± 0.041. Consider AAAACTTAGG, for which the switch fluorescence ratio is 0.978 ± 0.012.

On to AAAACTTCCT, for which the switch fluorescence ratio was found to be 2.5 ± 0.67.

On to AAAAGAGTGT, for which the switch fluorescence ratio worked out at 1.01 ± 0.023.

On to AAAAGATAGC, for which the switch fluorescence ratio amounted to 0.989 ± 0.04. With AAAAGATTGT, the switch fluorescence ratio is 1.043 ± 0.0085.

As for AAAAGCATGT, the switch fluorescence ratio was determined as 1.06 ± 0.03. Regarding AAAAGGAGGA, the switch fluorescence ratio is 1.02 ± 0.043.

For AAAAGGATCT, the switch fluorescence ratio was determined as 1.02 ± 0.029. In the case of AAAAGGATTG it was 0.982 ± 0.04; in that of AAAAGGGCAT, 1.01 ± 0.015; in that of AAAAGGGCTT, 1 ± 0.012. In the case of AAAAGGGTGA, the switch fluorescence ratio worked out at 1.02 ± 0.01. In the case of AAAAGGTTTC it was 1.02 ± 0.024; in that of AAAAGTCTGA, 1.01 ± 0.041; in that of AAAAGTGGGG, 1.02 ± 0.019. On to AAAAGTGTCG, for which the switch fluorescence ratio worked out at 1.06 ± 0.056. Take AAAATAAATG: the switch fluorescence ratio was 1.01 ± 0.017. For the sequence AAAATAAGGA, the switch fluorescence ratio came out at 0.986 ± 0.018.

AAAATAATTG: the switch fluorescence ratio was found to be 1.03 ± 0.025. As to AAAATACATT, the switch fluorescence ratio was found to be 0.993 ± 0.039. As for AAAATACCTA, the switch fluorescence ratio turned out to be 1.15 ± 0.14. Regarding AAAATAGGGG, the switch fluorescence ratio amounted to 1.04 ± 0.044. AAAATCATTG: the switch fluorescence ratio was 0.9615 ± 0.0027. In the case of AAAATCGAGC it was 1.02 ± 0.015; in that of AAAATCGAGG, 1.016 ± 0.004.

For AAAATCGCGG, the switch fluorescence ratio was determined as 0.9844 ± 0.0018.

On to AAAATCGTGA, for which the switch fluorescence ratio amounted to 1.009 ± 0.0097. As to AAAATGAAAA, the switch fluorescence ratio is 0.987 ± 0.0071. In the case of AAAATGATGG it was 1 ± 0.0073; in that of AAAATGGTAA, 1.001 ± 0.0057; in that of AAAATGTGGT, 1 ± 0.015.

Consider AAAATGTGTT, for which the switch fluorescence ratio amounted to 1.01 ± 0.018. In the case of AAAATTAGGC it was 0.919 ± 0.063; in that of AAAATTGGGA, 1.01 ± 0.035.

Regarding AAAATTTACG, the switch fluorescence ratio worked out at 1.1 ± 0.16. AAAATTTGGT: the switch fluorescence ratio turned out to be 1.04 ± 0.029. As for AAAATTTTGC, the switch fluorescence ratio is 1.12 ± 0.2.

Consider AAACACTAAG, for which the switch fluorescence ratio was 1.08 ± 0.016. For the sequence AAACAGCGTA, the switch fluorescence ratio worked out at 1.01 ± 0.032. Turning to AAACAGGGTG, the switch fluorescence ratio was 1.05 ± 0.05. For AAACATACCT, the switch fluorescence ratio is 1.4 ± 0.078. With AAACATAGGA, the switch fluorescence ratio came out at 0.992 ± 0.063. In the case of AAACATATAT, the switch fluorescence ratio amounted to 1.018 ± 0.0098. AAACCAGGGG: the switch fluorescence ratio amounted to 1.54 ± 0.11. As for AAACCCGCCC, the switch fluorescence ratio came to 1.8128 ± 0.00028. In the case of AAACCGATGG, the switch fluorescence ratio was 1.046 ± 0.0085.

As for AAACGATATT, the switch fluorescence ratio is 1.015 ± 0.0026.

Regarding AAACGGACGC, the switch fluorescence ratio is 1.2 ± 0.023. As to AAACGGAGTG, the switch fluorescence ratio is 1 ± 0.023. As for AAACGGGCAG, the switch fluorescence ratio is 0.985 ± 0.019. AAACGGTTAC: the switch fluorescence ratio worked out at 1.24 ± 0.038.

Take AAACTATGGA: the switch fluorescence ratio is 0.961 ± 0.022. For AAACTGGAAA, the switch fluorescence ratio was determined as 0.99 ± 0.016. In the case of AAACTGGAG, the switch fluorescence ratio amounted to 1.04 ± 0.053.

Take AAACTGGTAT: the switch fluorescence ratio worked out at 0.982 ± 0.02. Turning to AAACTGTTTC, the switch fluorescence ratio turned out to be 1.02 ± 0.016. Turning to AAACTTAATC, the switch fluorescence ratio came out at 1.04 ± 0.05. For the sequence AAACTTGGCT, the switch fluorescence ratio was 1.024 ± 0.0074. In the case of AAACTTTAGT, the switch fluorescence ratio was 0.987 ± 0.018.

As for AAAGAAAGAT, the switch fluorescence ratio is 1.08 ± 0.17. With AAAGAAAGTC, the switch fluorescence ratio is 1.043 ± 0.006.

Consider AAAGAAGACG, for which the switch fluorescence ratio is 1.0319 ± 0.00064. Consider AAAGAATTTC, for which the switch fluorescence ratio came out at 0.981 ± 0.038. In the case of AAAGACAAAT, the switch fluorescence ratio is 0.999 ± 0.042.

For the sequence AAAGAGAATA, the switch fluorescence ratio stood at 0.987 ± 0.036. With AAAGAGACGC, the switch fluorescence ratio worked out at 1.03 ± 0.068. Consider AAAGAGAGAA, for which the switch fluorescence ratio was determined as 0.9998 ± 0.0093.

AAAGAGAGTT: the switch fluorescence ratio is 0.9964 ± 0.0065. For the sequence AAAGAGTCGT, the switch fluorescence ratio came to 0.9883 ± 0.0027. Consider AAAGAGTGAA, for which the switch fluorescence ratio is 0.9989 ± 0.009.

AAAGAGTGAT: the switch fluorescence ratio was found to be 1.022 ± 0.0062. Regarding AAAGATATC, the switch fluorescence ratio is 0.984 ± 0.02. With AAAGATGAGG, the switch fluorescence ratio came out at 0.974 ± 0.029.

Turning to AAAGCAGGTA, the switch fluorescence ratio turned out to be 0.989 ± 0.029. For the sequence AAAGCAGTAT, the switch fluorescence ratio amounted to 1.14 ± 0.068. Take AAAGCCGCTG: the switch fluorescence ratio came out at 1.02 ± 0.033. AAAGCCGTAG: the switch fluorescence ratio was 1.003 ± 0.0082. Take AAAGCGAAGG: the switch fluorescence ratio amounted to 1.01 ± 0.044. In the case of AAAGCTCGTA, the switch fluorescence ratio is 1.06 ± 0.054.

Regarding AAAGCTGGGA, the switch fluorescence ratio came to 1.01 ± 0.019.

For AAAGCTTATT, the switch fluorescence ratio turned out to be 0.99822 ± 0.00097. AAAGCTTGAT: the switch fluorescence ratio was found to be 1.01 ± 0.02. For AAAGCTTTTC, the switch fluorescence ratio was found to be 1.07 ± 0.01. Turning to AAAGGACGAG, the switch fluorescence ratio came out at 0.983 ± 0.019. As to AAAGGAGAGG, the switch fluorescence ratio turned out to be 1.01 ± 0.05.

Consider AAAGGAGGTC, for which the switch fluorescence ratio is 1.05 ± 0.033.

On to AAAGGAGGTT, for which the switch fluorescence ratio was found to be 1 ± 0.028.

For the sequence AAAGGATAAT, the switch fluorescence ratio was found to be 1.01 ± 0.0077. In the case of AAAGGATAGC, the switch fluorescence ratio turned out to be 1.017 ± 0.0044. On to AAAGGCGGTG, for which the switch fluorescence ratio came out at 0.976 ± 0.023. In the case of AAAGGGAGAT, the switch fluorescence ratio was found to be 1.027 ± 0.0085.

Take AAAGGGAGGA: the switch fluorescence ratio came out at 1.02 ± 0.036. In the case of AAAGGGAGTA it was 0.999 ± 0.041; in that of AAAGGGCCAG, 1.02 ± 0.02.
